Reference: US20170165338A1

Tests used:
HLA-A*02 (human) = assay: UV-exchange b2m ELISA
HLA-A*24 (human) = assay: UV-exchange b2m ELISA

Row | Binder | peptide exchange yield (HLA-A*02 (human)) [%] | peptide exchange yield (HLA-A*24 (human)) [%]
1 | FIIQGLRSVGA | 50 to 75 | –
2 | VTPVTVSAV | < 20 | –
3 | FTIFRTISV | 50 to 75 | –
4 | GVVDPVHGV | 20 to 49 | –
5 | VLDPALPALV | 20 to 49 | –
6 | KVMATIEKV | 20 to 49 | –
7 | SLADYEHFV | > 75 | –
8 | QMFQYFITV | > 75 | –
9 | KLDGNELDL | 50 to 75 | –
10 | TQSPATLSV | 20 to 49 | –
11 | RLQDILWFL | > 75 | –
12 | SLLGGTFVGI | 50 to 75 | –
13 | VTSNSGILGV | 50 to 75 | –
14 | ILGEVLAQL | 50 to 75 | –
15 | ALLPRLHQL | > 75 | –
16 | GLAVPTPSV | 50 to 75 | –
17 | HLSTIIHEA | 50 to 75 | –
18 | FLFGGVLMTL | 20 to 49 | –
19 | ALLAKILQI | 50 to 75 | –
20 | FLLPTGAEA | 20 to 49 | –
21 | FLDKVLVAA | 50 to 75 | –
22 | ILVEGISTV | 50 to 75 | –
23 | ALLPELREV | 50 to 75 | –
24 | ALLAFFPGL | 50 to 75 | –
25 | YLWATIQRI | 50 to 75 | –

Row | Binder | peptide exchange yield (HLA-A*02 (human)) [%] | peptide exchange yield (HLA-A*24 (human)) [%]
26 | ALHFSEDEI | 20 to 49 | –
27 | YLMDDTVEI | > 75 | –
28 | MLAGIAITV | 50 to 75 | –
29 | ILNTHITEL | 50 to 75 | –
30 | VLYDRPLKI | 50 to 75 | –
31 | SVLDSTAKV | 20 to 49 | –
32 | MMVGDLLEV | 50 to 75 | –
33 | FISERVEVV | > 75 | –
34 | RLLGTEFQV | 50 to 75 | –
35 | LLNPVVEFV | 50 to 75 | –
36 | ILGDLSHLL | 50 to 75 | –
37 | TLTSLLAQA | 50 to 75 | –
38 | AILAHLNTV | > 75 | –
39 | KLQNIMMLL | 20 to 49 | –
40 | KIIDFLSAL | 50 to 75 | –
41 | TYTTVPRVAF | – | > 75
42 | VYPWLGALL | – | > 75
43 | IFIEVFSHF | – | 50 to 75
44 | MYDSYWRQF | – | > 75
45 | IYDDSFIRPVTF | – | 50 to 75
46 | LYLDIINLF | – | > 75
47 | IYQLDTASI | – | 50 to 75
48 | VFTSTARAF | – | 50 to 75
49 | VFQNFPLLF | – | > 75
50 | IYKVGAPTI | – | 50 to 75

Row | Binder | peptide exchange yield (HLA-A*02 (human)) [%] | peptide exchange yield (HLA-A*24 (human)) [%]
51 | IFPQFLYQF | – | > 75
52 | TYLRDQHFL | – | > 75
53 | RYFKGLVF | – | 50 to 75
54 | WYVNGVNYF | – | 20 to 49
55 | GFFIFNERF | – | 50 to 75
56 | VFKASKITF | – | 50 to 75
57 | SYALLTYMI | – | > 75
58 | RFHPTPLLL | – | > 75
59 | EFGSLHLEFL | – | < 20
60 | LYLDKATLI | – | 50 to 75
61 | FYSRLLQKF | – | 50 to 75
62 | VHIPEVYLI | – | 50 to 75
63 | EYQENFLSF | – | 50 to 75
64 | TYTQDFNKF | – | 50 to 75
65 | IYTMIYRNL | – | > 75
66 | YYLEVGKTLI | – | > 75
67 | LYLKLWNLI | – | 50 to 75
68 | YFDKVVTL | – | 20 to 49
69 | QYSSVFKSL | – | > 75
70 | FFPPTRQMGLLF | – | > 75
71 | EYPLVINTL | – | 50 to 75
72 | RYSTGLAGNLL | – | 50 to 75
73 | KYIPYKYVI | – | 50 to 75
74 | QYLENLEKL | – | 50 to 75
75 | YYVYIMNHL | – | 50 to 75
